Columns and labels:
[1] = molecular target: native VEGFR-1 expressed on the cell surface (human, UniProt P17948 27-1338); assay: cell-based or functional assay
[2] = molecular target: T1, recombinant extracellular domain of VEGFR-1 (UniProt P17948 27-758, limits assumed); assay: SPR, BIAcore 2000, VEGFR-1 extracellular domain immobilised at low density
T1 construct: extracellular domain
Experimental: Affinities of anti-VEGFR-1 antibody clones 6F9, 13 G12, 15F1 1, 18F1 were determined by plasmon resonance technology using BIAcore 2000 (Pharmacia, Piscataway, N.J.) according to the procedures provided by the manufacturer. Kinetic analyses of the antibodies were performed by immobilization of recombinant extracellular domain of VEGFR-I onto a sensor surface at a low density. The (kₒₙ) and dissociation (kₒ_{^ff}) rates were determined using the BIAevaluation 2.1 software provided by the manufacturer.

[3] = molecular target: T2, soluble recombinant human VEGFR-1 alkaline phosphatase (human, UniProt P17948 27-758); assay: blocking ELISA: antibody preincubated with VEGFR-1 AP, binding to PlGF coated plate
T2 construct: Made in house in stably transfected cells; also called rhuVEGFR-I AP; VEGFR-I AP; not shown: alkaline phosphatase fusion partner
Experimental: Specifically, hybridoma supernatants or purified antibodies were diluted in PBS with 5% FBS and 0.05% Tween 20 (ELISA buffer) and incubated in rhuVEGFR-I AP or AP coated 96-well microtiter plates for 30 minutes. Plates were washed with the ELISA buffer and incubated with goat anti-mouse IgG-horseradish peroxidase (HRP) conjugate (BioSource International, Camarillo, Calif.) for 30 minutes. TMB (3,3′,5,5′-tetra-methylbenzidine) substrate (Kierkegaard and Perry Lab, Inc., Gaithersburg, Md.) was used for color development following the manufacturer's instruction. The absorbance at 450 nanometers (nm) was read for quantification of binding activity of antibodies. For identification of the hybridomas producing anti-VEGFR-I antibodies, hybridoma supernatants were preincubated with VEGFR-I AP for 1 hour. The mixtures were incubated with the ELISA buffer in VEGF or P1GF coated 96-well microtiter plates for 1 hour. PNPP (p-nitrophenyl phosphate) substrate for AP was used for color development following the manufacturer's instruction. The absorbance at 405 nm was read for quantification of VEGFR-I binding to VEGF or P1GF. Optical density (OD) values were read on a microtiter plate reader (Molecular Devices Corp., Sunnyvale, Calif.). ED50 and IC50 of the antibodies were analyzed using GraphPad Prism 3 software (GraphPad Software, Inc., San Diego, Calif.).

[4] = molecular target: T3, recombinant human VEGFR-1 Fc (human, UniProt P17948-2 27-687, limits assumed); assay: ELISA: plate coated with HuVEGFR-1-Fc 100 ng/well, goat anti-human kappa-HRP, O.D. 450
T3 construct: Bought from R&D Systems; also called rhuVEGFR-1 Fc; HuVEGFR-I-Fc; not shown: Fc part
Experimental: TMB (3,3′,5,5′-tetra-methylbenzidine) substrate (Kierkegaard and Perry Lab, Inc., Gaithersburg, Md.) was used for color development following the manufacturer's instruction. The absorbance at 450 nanometers (nm) was read for quantification of binding activity of antibodies. For identification of the hybridomas producing anti-VEGFR-I antibodies, hybridoma supernatants were preincubated with VEGFR-I AP for 1 hour. […] PNPP (p-nitrophenyl phosphate) substrate for AP was used for color development following the manufacturer's instruction. The absorbance at 405 nm was read for quantification of VEGFR-I binding to VEGF or P1GF. Optical density (OD) values were read on a microtiter plate reader (Molecular Devices Corp., Sunnyvale, Calif.). ED50 and IC50 of the antibodies were analyzed using GraphPad Prism 3 software (GraphPad Software, Inc., San Diego, Calif.).
HuVEGFR-I-Fc, mouse VEGFR-I-AP (hnClone Systems) or huVEGFR-2-AP (ImClone Systems) (100 ng/well) was coated on 96 strip-well plates and blocked with 5% milk/PBS. […]

mouse VEGFR-1-AP = molecular target: T4, mouse VEGFR-1-AP (mouse, UniProt P35969 23-759); assay: ELISA: plate coated with mouse VEGFR-1-AP 100 ng/well, goat anti-human kappa-HRP, O.D. 450
T4 construct: From ImClone Systems; also called mouse VEGFR-I-AP; not shown: alkaline phosphatase fusion partner; not described
T4 sequence (looked up): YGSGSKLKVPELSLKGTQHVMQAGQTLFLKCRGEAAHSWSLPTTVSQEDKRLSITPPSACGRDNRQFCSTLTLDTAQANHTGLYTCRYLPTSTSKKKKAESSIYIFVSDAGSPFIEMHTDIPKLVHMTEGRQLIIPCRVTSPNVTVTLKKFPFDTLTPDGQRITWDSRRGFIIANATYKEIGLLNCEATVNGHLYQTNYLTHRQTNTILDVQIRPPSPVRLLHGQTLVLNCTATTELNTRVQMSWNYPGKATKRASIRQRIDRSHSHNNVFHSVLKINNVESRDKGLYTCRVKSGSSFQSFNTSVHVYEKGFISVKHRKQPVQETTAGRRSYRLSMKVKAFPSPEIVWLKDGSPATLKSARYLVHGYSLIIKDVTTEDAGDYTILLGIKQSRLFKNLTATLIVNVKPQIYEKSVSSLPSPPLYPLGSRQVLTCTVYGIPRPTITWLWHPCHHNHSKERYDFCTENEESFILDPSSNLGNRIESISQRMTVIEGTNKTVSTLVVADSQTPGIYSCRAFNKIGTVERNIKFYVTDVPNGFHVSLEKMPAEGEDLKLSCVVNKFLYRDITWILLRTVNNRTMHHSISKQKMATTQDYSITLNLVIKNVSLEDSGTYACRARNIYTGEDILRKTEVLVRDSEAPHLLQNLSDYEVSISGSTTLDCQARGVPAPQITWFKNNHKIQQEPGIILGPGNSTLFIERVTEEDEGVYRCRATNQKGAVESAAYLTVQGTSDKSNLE

T1 sequence (P17948 27-758 limits assumed): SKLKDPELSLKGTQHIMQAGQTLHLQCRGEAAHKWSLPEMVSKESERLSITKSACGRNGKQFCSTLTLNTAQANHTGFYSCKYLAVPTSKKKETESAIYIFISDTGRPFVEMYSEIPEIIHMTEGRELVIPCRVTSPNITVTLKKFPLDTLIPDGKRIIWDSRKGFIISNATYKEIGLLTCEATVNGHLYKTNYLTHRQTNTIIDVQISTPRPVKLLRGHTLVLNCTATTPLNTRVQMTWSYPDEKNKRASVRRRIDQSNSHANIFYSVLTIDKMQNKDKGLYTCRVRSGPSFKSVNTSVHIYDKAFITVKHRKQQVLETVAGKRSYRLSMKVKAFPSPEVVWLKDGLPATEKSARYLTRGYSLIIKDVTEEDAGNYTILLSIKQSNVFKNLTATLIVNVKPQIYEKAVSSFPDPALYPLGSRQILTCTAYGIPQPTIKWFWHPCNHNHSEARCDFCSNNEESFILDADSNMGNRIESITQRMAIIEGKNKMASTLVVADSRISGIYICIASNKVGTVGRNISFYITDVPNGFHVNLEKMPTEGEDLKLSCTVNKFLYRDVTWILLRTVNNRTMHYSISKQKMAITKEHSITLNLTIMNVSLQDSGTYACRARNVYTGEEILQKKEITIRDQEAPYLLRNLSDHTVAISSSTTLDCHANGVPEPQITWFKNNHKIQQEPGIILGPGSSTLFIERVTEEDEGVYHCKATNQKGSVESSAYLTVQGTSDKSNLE
T3 sequence (P17948 other isoform, or with tags, fused parts or gaps limits assumed): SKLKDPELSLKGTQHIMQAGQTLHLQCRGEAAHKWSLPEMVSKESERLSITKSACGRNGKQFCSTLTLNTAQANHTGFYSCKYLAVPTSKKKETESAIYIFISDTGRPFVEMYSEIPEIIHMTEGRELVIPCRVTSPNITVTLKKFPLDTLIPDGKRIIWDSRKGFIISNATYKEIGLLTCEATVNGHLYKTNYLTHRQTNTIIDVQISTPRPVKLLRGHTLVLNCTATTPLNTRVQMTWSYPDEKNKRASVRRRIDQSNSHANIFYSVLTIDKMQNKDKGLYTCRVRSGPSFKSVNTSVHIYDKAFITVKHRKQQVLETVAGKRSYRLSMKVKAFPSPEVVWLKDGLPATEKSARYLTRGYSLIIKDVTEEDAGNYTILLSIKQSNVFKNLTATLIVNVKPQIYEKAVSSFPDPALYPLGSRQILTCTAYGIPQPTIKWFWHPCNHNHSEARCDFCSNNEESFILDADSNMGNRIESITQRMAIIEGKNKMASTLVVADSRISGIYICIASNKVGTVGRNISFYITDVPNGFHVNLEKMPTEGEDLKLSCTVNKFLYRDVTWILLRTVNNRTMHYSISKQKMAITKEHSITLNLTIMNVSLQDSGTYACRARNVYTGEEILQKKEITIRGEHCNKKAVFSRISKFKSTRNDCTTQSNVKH
T2 sequence (P17948 27-758): as the sequence (P17948 27-758 limits assumed) above
Chain of native VEGFR-1 expressed on the cell surface (P17948 27-1338): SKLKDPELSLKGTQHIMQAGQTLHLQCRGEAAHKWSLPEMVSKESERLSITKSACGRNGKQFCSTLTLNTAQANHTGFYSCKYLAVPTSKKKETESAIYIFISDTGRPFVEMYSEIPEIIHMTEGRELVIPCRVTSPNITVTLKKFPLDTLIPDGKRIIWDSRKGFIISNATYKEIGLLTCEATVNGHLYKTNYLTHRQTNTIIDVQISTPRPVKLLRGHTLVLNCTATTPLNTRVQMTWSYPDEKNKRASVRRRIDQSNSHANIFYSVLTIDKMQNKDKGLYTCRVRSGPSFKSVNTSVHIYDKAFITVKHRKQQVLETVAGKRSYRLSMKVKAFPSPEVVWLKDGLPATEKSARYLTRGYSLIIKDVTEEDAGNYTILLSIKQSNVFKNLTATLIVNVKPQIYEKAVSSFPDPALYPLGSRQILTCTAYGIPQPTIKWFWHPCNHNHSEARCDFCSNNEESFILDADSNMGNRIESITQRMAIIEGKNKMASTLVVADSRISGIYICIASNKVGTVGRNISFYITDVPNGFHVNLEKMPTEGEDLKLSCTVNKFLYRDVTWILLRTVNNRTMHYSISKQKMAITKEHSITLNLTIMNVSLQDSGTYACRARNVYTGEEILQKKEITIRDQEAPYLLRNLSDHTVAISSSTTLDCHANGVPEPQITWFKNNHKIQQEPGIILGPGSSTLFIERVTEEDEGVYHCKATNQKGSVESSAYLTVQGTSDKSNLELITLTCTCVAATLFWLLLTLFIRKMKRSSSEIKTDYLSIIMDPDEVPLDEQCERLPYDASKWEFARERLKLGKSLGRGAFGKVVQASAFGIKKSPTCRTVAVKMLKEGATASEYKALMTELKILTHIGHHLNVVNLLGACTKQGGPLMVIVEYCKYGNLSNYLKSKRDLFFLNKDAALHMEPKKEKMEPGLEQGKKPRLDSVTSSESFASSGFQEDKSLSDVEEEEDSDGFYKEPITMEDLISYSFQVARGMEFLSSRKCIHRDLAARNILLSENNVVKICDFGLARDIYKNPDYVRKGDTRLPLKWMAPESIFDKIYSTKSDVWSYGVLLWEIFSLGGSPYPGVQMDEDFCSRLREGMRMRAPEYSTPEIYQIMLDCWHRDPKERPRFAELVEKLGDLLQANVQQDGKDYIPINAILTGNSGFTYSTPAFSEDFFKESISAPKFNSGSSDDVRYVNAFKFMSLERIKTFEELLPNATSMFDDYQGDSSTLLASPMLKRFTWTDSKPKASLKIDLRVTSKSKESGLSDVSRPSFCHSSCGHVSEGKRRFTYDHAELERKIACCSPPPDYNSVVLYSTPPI

B1: anti-human VEGFR-1 antibody 18F1 (antibody, V domains shown)
VH: QAQVVESGGGVVQSGRSLRLSCAASGFAFSSYGMHWVRQAPGKGLEWVAVIWYDGSNKYYADSVRGRFTISRDNSENTLYLQMNSLRAEDTAVYYCARDHYGSGVHHYFYYGLDVWGQGTTVTVSS
VL: not shown
notes: Fully human antibody (gamma heavy chain, kappa light chain) from hybridomas of KM transgenic mice, purified; The light chain entry runs a few residues into the kappa constant region; also called MC-18F1; IMC-18F1
Inhibition of PlGF-induced DU4475 cell growth in vitro (IC50) [1]: 24 nM | Kd [2]: 0.054 nM | kon [2]: 810000 M⁻¹ s⁻¹ | IC50 [3]: 0.55 nM | EC50 (read off the curve) [4]: ~3 ng/mL | binding result (mouse VEGFR-1-AP): no binding (tested: 1 µg/mL)

From patent US20100028347A1 (Eli Lilly, published 2010)
